What follows are proteins tested against pooled human IgG.

Protein	Enzyme Activity Endpoint Assay (purified): Fab'2	Enzyme Activity Endpoint Assay (purified): Fc	Enzyme Activity Endpoint Assay (purified): IgG	Enzyme Activity Endpoint Assay (purified): scIgG
PRT-124 (protein) MRNATEAYAKEVPHQITSVWTKGVTPLTPEQFRYNNEDVIHAPYLAHQGWYDITKTFDGKDNLLCGAATAGNMLHWWFDQNKTEIEAYLSKHPEKQKIIFNNQELFDLKAAIDTKDSQTNSQLFNYFRDKAFPNLSARQLGVMPDLVLDMFINGYYLNVFKTQSTDVNRPYQDKDKRGGIFDAVFTRGDQTTLLTARHDLKNKGLNDISTIIKQELTEGKALALSHTYANVSISHVINLWGADFNAEGNLEAIYVTDSDANASIGMKKYFVGVNAHGKVAISAKKIEGENIGAQVLGLFTLSSGKDIWQKLS	676 ng/µL	202 ng/µL	0 ng/µL	0 ng/µL
PRT-128 (protein) MRNATEAYAKEVPKQITSVWTKGVTPPTPEQFRYNNEDVIHAPYLANQGWYDITKTFNGKDNLLCGAATAGNMLHWWFDQNKTEIEAYLSKHPEKQKIIFNNQELFDLKAAIDTKDSQTNSQLFNYFRDKAFPNLSARQLGVMPDLVLDMFINGYYLNVFKTQSTDVNRPYQDKDKRGGIFDAVFTRGDQTTLLTARHDLKNKTLNDISTLIKQELTEGKALALSHTYANVSISHVINLWGADFNAEGNLEAIYVTDSDANASIGMKKYFVGVNAHGKVAISAKKIEGENIGAQVLGLFTLSSGKDIWQKLS	560 ng/µL	151 ng/µL	0 ng/µL	60 ng/µL
PRT-127 (protein) MRNATEAYAKEVPHQITSVWTKGVTPLTPEQFRYNNEDVIHAPYLANQGWYDITKTFNGKDNLLCGAATAGNMLHWWFDQNKTEIEAYLKKHPEKQKIIFNNQELFDLKAAIDTKDSQTNSQLFNYFRDKAFPNLSARQLGVMPDLVLDMFINGYYLNVFKTQSTDVNRPYQDKDKRGGIFDAVFTRGDQTTLLTARHDLKNKGLNEISTLIKQELTEGKALALSHTYANVSISHVINLWGADFNAEGNLEAIYVTDSDSNASIGMKKYFVGVNAHGKVAISAKKIEGENIGAQVLGLFTLSSGKDIWQKLS	523 ng/µL	140 ng/µL	0 ng/µL	0 ng/µL
PRT-126 (protein) MRNATEAYAKEVPHQITSVWTKGVTPLTPEQFRYNNEDVIHAPYLANQGWYDITKTFDGKDNLLCGAATAGNMLHWWFDQNKTEIEAYLSKHPEKQKIIFNNQELFDLKAAIDTKDSQTNSQLFNYFRDKAFPNLSARQLGVMPDLVLDMFINGYYLNVFKTQSTDVNRPYQDKDKRGGIFDAVFTRGDQTTLLTARHDLKNKGLNDISDLIKQELTEGKALALSHTYANVSISHVINLWGADFNAEGNLEAIYVTDSDSNASIGMKKYFVGVNAAGHVAISAKKIEGENIGAQVLGLFTLSSGKDIWQKLS	472 ng/µL	160 ng/µL	0 ng/µL	0 ng/µL
PRT-125 (protein) MRNATEAYAKEVPHQITSVWTKGVTPLTPEQFRYNNEDVFHAPYLANQGWYDITKTFDGKDNLLCGAATAGNMLHWWFDQNKTEIEAYLSKHPEKQKIIFNNQELFDLKAAIDTKDSQTNSQLFNYFRDKAFPNLSARQLGVMPDLVLDMFINGYYLNVFKTQSTDVNRPYQDKDKRGGIFDAVFTRGDQTKLLTARHDLKNKGLNDISTLIKQELTEGKALALSHTYANVSISHVINLWGADFNAEGNLEAIYVTDSDANASIGMKKYFVGVNAHGHVAISAKKIEGENIGAQVLGLFTLSSGKDIWQKLS	609 ng/µL	197 ng/µL	0 ng/µL	0 ng/µL

From US20250027068
